{
  "source": "paper PMC6626918",
  "about": "(Frontiers in Microbiology, 2019)",
  "key": {"[1]": {"biological_target": "T1, AhpC (BthAhpC) (Burkholderia thailandensis, UniProt Q2SWT3)", "T1 construct": "gene BTH_I2092", "conditions": "read-out: Systems / AhpD / Km"}, "[2]": {"biological_target": "Alkyl hydroperoxide reductase subunit C (AhpC) of Burkholderia thailandensis E264, GST-tagged (Burkholderia thailandensis E264) (UniProt Q2SWT3)"}},
  "data": [
    {"molecule": "CC(C)(OO)c1ccccc1", "note": "[CHP]", "values": [
      {"measurement": "Km", "setting": "[1]", "result": "57.6 ± 1.2", "unit": "µM"}
    ]},
    {"molecule": "CC(C)(C)OO", "note": "[t-BOOH]", "values": [
      {"measurement": "Km", "setting": "[1]", "result": "60.1 ± 1.8", "unit": "µM"}
    ]},
    {"molecule": "Thioredoxin C (TrxC) of Burkholderia thailandensis E264 (enzyme)", "values": [
      {"measurement": "Km of AhpC peroxidase activity for TrxC (NADPH consumption at 340 nm; TrxC varied 0-500 μM, 1 μM AhpC, 1 mM CHP, TrxR system)", "setting": "[2]", "result": 147, "unit": "µM"},
      {"measurement": "Km of AhpC peroxidase activity for TrxC (NADPH consumption at 340 nm; TrxC varied 0-500 μM, 1 μM AhpC, 1 mM H2O2, TrxR system)", "setting": "[2]", "result": 348, "unit": "µM"},
      {"measurement": "Km of AhpC peroxidase activity for TrxC (NADPH consumption at 340 nm; TrxC varied 0-500 μM, 1 μM AhpC, 1 mM t-BOOH, TrxR system)", "setting": "[2]", "result": 202, "unit": "µM"}
    ]}
  ]
}
